Experimental data taken from patent KR20210053410A.

Biological target: 개 인플루엔자 바이러스 H3N2 (Canine influenza virus H3N2)
Assay: cell-based or functional assay

B1: 개 인플루엔자 바이러스 단일클론항체 3E2 (antibody, V domains shown)
VH: EVKLVESGGGLVQPGGSLRLSCATSGFTFTDYYMSWVRQPPGKALEWLGFIRNKANGYTTEYSASVKGRFTISRDNSQSILYLQMNTLRPEDSATYYCARDTPVARGVCLLGQGTLVTVSA
VL: DIVMTQSPSSLAVSAGEKVTMSCKSSQSLLNSRTRQNYLAWYQQKPGQSPKLLIYWASTRESGVPDRFTGSGSGTDFTLTISSVQAEDLAVYYCKQSYSLWTFGGGTKLEIK
- HI titer (3E2 mAb 하이브리도마 상층액): 128
- HI titer (3E2 mAb): 131000
